Assay results taken from patent US20250230251A1 (Bristol-Myers Squibb, published 2025).
Read-outs that look alike come from different tables or passages of the source.

Key:
[1] = molecular target: T1, huIL-18Rβ-HisAvi (human, UniProt O95256 20-356, biotinylated in the Octet blocking assay); experiment: SPR T200, pH 5 against pH 7.4
T1 construct: Soluble analyte in all SPR runs; captured on streptavidin sensors in the Octet assay; also called human IL-18Rβ; human IL-18Rβ-Avi-His
T1 sequence: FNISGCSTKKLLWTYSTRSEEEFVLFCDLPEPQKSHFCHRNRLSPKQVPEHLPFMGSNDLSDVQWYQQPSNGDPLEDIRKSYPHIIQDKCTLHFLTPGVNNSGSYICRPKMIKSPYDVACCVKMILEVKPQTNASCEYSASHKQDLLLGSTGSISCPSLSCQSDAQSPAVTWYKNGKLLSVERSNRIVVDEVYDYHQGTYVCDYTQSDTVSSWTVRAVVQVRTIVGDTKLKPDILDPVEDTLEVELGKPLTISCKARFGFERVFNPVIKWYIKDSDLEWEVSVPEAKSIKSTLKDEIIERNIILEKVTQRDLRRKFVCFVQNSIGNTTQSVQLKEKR

[2] = molecular target: T1, huIL-18Rβ-HisAvi; experiment: SPR T200, pH 7.4; sample stored at pH 6, 4 w 40C
[3] = molecular target: T1, huIL-18Rβ-HisAvi; experiment: SPR T200, pH 7.4; sample stored at pH 8, T0
[4] = molecular target: T1, huIL-18Rβ-HisAvi; experiment: SPR Biacore T200, mAb captured on anti-human Fc, huIL-18Rβ-HisAvi as analyte, PBST pH 6.0, 37 °C, 1:1 Binding fit
[5] = molecular target: T1, huIL-18Rβ-HisAvi; experiment: SPR T200, pH 7.4; sample stored at pH 6, 4 w 4C
[6] = molecular target: T2, human IL-18Rβ on cells (human, UniProt O95256 20-599); experiment: cell-based or functional assay
T2 sequence: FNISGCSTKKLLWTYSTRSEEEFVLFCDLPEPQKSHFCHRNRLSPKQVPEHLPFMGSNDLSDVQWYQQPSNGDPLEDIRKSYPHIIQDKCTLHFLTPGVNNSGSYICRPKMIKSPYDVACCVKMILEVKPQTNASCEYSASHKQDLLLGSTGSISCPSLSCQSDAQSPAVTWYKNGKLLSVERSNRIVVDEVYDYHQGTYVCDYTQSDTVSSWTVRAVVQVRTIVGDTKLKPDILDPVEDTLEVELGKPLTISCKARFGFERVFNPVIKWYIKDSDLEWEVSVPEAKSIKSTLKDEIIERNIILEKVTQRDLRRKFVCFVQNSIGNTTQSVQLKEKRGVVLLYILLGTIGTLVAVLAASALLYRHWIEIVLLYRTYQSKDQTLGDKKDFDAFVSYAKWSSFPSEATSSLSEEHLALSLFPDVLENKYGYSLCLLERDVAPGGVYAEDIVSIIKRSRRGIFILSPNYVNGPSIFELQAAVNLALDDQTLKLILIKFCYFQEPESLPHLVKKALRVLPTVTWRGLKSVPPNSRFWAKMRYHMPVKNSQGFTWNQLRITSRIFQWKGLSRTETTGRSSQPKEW

[7] = molecular target: T2, human IL-18Rβ on cells; experiment: cell-based or functional assay; remark: listed apart in the source
[8] = molecular target: T1, huIL-18Rβ-HisAvi; experiment: SPR T200, mAb on anti-hFc, 37C, pH 7.4
[9] = molecular target: T1, huIL-18Rβ-HisAvi; experiment: SPR T200, mAb on anti-hFc, 37C, pH 7.4; remark: listed apart in the source
[10] = molecular target: the molecule itself; experiment: clone self-interaction BLI, antibody on AHQ sensor against 1 µM of the same antibody
[11] = molecular target: T2, human IL-18Rβ on cells; experiment: cell-based or functional assay; remark: listed apart in the source
[12] = molecular target: T1, huIL-18Rβ-HisAvi; experiment: SPR T200, mAb on anti-hFc, 37C, pH 7.4; sample stored at pH 6, T0
[13] = molecular target: T1, huIL-18Rβ-HisAvi; experiment: SPR T200, pH 7.4; sample stored at pH 8, 4 w 40C
[14] = molecular target: T1, huIL-18Rβ-HisAvi; experiment: SPR T200, pH 7.4; sample stored at pH 8, 4 w 4C
[15] = molecular target: T1, huIL-18Rβ-HisAvi; experiment: SPR Biacore T200, mAb captured on anti-human Fc, huIL-18Rβ-HisAvi as analyte, PBST pH 5.5, 37 °C, 1:1 Binding fit
[16] = molecular target: T1, huIL-18Rβ-HisAvi; experiment: SPR T200, mAb on anti-hFc, 37C, pH 5
[17] = molecular target: T1, huIL-18Rβ-HisAvi; experiment: SPR screen, 1:1 fit
[18] = molecular target: T1, huIL-18Rβ-HisAvi; experiment: SPR T200, mAb on anti-hFc, 37C, pH 6
[19] = molecular target: T3, cyIL-18Rβ-HisAvi (cynomolgus monkey); experiment: SPR T200, mAb on anti-hFc, 37C, pH 7.4
T3 construct: Soluble analyte in SPR; also called cyno IL-18Rβ; cynomolgus monkey IL-18Rβ
T3 chain: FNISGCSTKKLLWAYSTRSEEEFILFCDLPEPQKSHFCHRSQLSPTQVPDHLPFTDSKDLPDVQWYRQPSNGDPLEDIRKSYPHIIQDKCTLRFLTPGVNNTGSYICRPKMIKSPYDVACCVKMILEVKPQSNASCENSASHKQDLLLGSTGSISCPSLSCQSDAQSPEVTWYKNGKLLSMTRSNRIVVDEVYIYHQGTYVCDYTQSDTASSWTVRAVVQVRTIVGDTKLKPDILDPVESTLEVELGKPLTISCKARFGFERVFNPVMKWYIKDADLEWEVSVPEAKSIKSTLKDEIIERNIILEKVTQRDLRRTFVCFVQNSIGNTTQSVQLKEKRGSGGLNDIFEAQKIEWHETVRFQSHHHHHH

[20] = molecular target: T1, huIL-18Rβ-HisAvi; experiment: SPR T200, pH 7.4 and pH 6
[21] = molecular target: T3, cyIL-18Rβ-HisAvi; experiment: SPR T200, mAb on anti-hFc, 37C, pH 6

B1: P8 (antibody, human IgG1, kappa)
heavy: QVQLVQSGAEVKKPGASVRVSCKASGYTFTSYYMHWVRQAPGQGLEWMGIINPRGGYTTYAQKFQGRVTMTRDTSTSTVYMELSSLRSEDTAVYYCAKEGRVSPTDYYGMDVWGQGTTVTVSSASTKGPSVFPLAPSSKSTSGGTAALGCLVKDYFPEPVTVSWNSGALTSGVHTFPAVLQSSGLYSLSSVVTVPSSSLGTQTYICNVNHKPSNTKVDKRVEPKSCDKTHTCPPCPAPEAEGAPSVFLFPPKPKDTLMISRTPEVTCVVVDVSHEDPEVKFNWYVDGVEVHNAKTKPREEQYNSTYRVVSVLTVLHQDWLNGKEYKCKVSNKALPAPIEKTISKAKGQPREPQVYTLPPSREEMTKNQVSLTCLVKGFYPSDIAVEWESNGQPENNYKTTPPVLDSDGSFFLYSKLTVDKSRWQQGNVFSCSVMHEALHNHYTQKSLSLSPG
light: not shown
notes: Human IgG
[1]
  KD ratio (KD pH 5/KD pH 7): 0.33
  kd ratio (kd pH 5/kd pH 7): 0.57
[2]
  Kd: 0.6 nM
  koff: 0.00044 s⁻¹
  kon: 730000 M⁻¹ s⁻¹
[3]
  Kd: 0.85 nM
  koff: 0.00046 s⁻¹
  kon: 540000 M⁻¹ s⁻¹
[4]
  Kd: 1.24 nM
  koff: 0.000504 s⁻¹
  kon: 405000 M⁻¹ s⁻¹
[5]
  Kd: 0.8 nM
  koff: 0.00045 s⁻¹
  kon: 570000 M⁻¹ s⁻¹
[6]
  IC50, IL-18-induced IFNγ release, KG-1 cells: 0.3 nM
[7]
  IC50, LPS+IL-12 dependent IFNg production, human whole blood: 1.12 nM
[8]
  Kd: 0.96 nM
  koff: 0.0005 s⁻¹
  kon: 520000 M⁻¹ s⁻¹
[9]
  Kd: 1.2 nM
  koff: 0.00038 s⁻¹
  kon: 310000 M⁻¹ s⁻¹
[10]
  Average CSI-BLI ΔResponse: -0.01 nm
[11]
  IC50, LPS+IL-12 dependent IFNg production, human whole blood: 0.3 nM
  y-max, LPS+IL-12 dependent IFNg production, human whole blood: 98%
[12]
  Kd: 0.83 nM
  koff: 0.00047 s⁻¹
  kon: 570000 M⁻¹ s⁻¹
[13]
  Kd: 0.78 nM
  koff: 0.00046 s⁻¹
  kon: 590000 M⁻¹ s⁻¹
[14]
  Kd: 0.81 nM
  koff: 0.00043 s⁻¹
  kon: 520000 M⁻¹ s⁻¹
[15]
  Kd: 1.08 nM
  koff: 0.000511 s⁻¹
  kon: 472000 M⁻¹ s⁻¹
[16]
  Kd: 0.41 nM
  koff: 0.00022 s⁻¹
  kon: 530000 M⁻¹ s⁻¹
[17]
  Kd: 0.094 nM
[18]
  Kd: 0.18 nM
  koff: 0.00024 s⁻¹
  kon: 1.4e+06 M⁻¹ s⁻¹

B2: P20-V4 (antibody, human IgG1, kappa, name in Kabat numbering)
heavy: QVQLQESGPGLVKPSETLSLTCTVSGGSINNYYWSWIRQPPGKGLEWIGYIFYSGTTNYNPSLKSRVTISVDTSKNQFSLKLSSVTAADTAVYYCARDVGIAARNSYYYVMDVWGQGTTVTVSSASTKGPSVFPLAPSSKSTSGGTAALGCLVKDYFPEPVTVSWNSGALTSGVHTFPAVLQSSGLYSLSSVVTVPSSSLGTQTYICNVNHKPSNTKVDKRVEPKSCDKTHTCPPCPAPEAEGAPSVFLFPPKPKDTLMISRTPEVTCVVVDVSHEDPEVKFNWYVDGVEVHNAKTKPREEQYNSTYRVVSVLTVLHQDWLNGKEYKCKVSNKALPAPIEKTISKAKGQPREPQVYTLPPSREEMTKNQVSLTCLVKGFYPSDIAVEWESNGQPENNYKTTPPVLDSDGSFFLYSKLTVDKSRWQQGNVFSCSVMHEALHNHYTQKSLSLSPG
light: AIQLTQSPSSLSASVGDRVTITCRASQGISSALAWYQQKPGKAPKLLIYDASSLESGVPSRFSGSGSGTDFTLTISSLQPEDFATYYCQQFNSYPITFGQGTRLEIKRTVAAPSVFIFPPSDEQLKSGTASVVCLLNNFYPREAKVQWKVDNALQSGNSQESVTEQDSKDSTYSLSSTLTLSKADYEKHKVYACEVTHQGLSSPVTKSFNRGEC
notes: built from the chains of the parent P20 with the printed mutations
[7]
  IC50, LPS+IL-12 dependent IFNg production, human whole blood: 37.6 nM
[8]
  Kd: 42 nM
  koff: 0.0018 s⁻¹
  kon: 44000 M⁻¹ s⁻¹
[19]
  Kd: 88 nM
  koff: 0.002 s⁻¹
  kon: 23000 M⁻¹ s⁻¹
[20]
  fold weaker binding than the parent P20: 100 fold
[18]
  Kd: 14 nM
  koff: 0.0037 s⁻¹
  kon: 270000 M⁻¹ s⁻¹
[21]
  Kd: 42 nM
  koff: 0.002 s⁻¹
  kon: 48000 M⁻¹ s⁻¹

B3: P20-V5 (antibody, human IgG1, kappa, name in Kabat numbering)
heavy: QVQLQQSGPGLVKPSETLSLTCTVSGGSINNYYWSWIRQPPGKGLEWIGYIFYSGTTNYNPSLKSRVTISVDTSKNQFSLKLSSVTAADTAVYYCARDVGIAARNSYYYVMDVWGQGTTVTVSSASTKGPSVFPLAPSSKSTSGGTAALGCLVKDYFPEPVTVSWNSGALTSGVHTFPAVLQSSGLYSLSSVVTVPSSSLGTQTYICNVNHKPSNTKVDKRVEPKSCDKTHTCPPCPAPEAEGAPSVFLFPPKPKDTLMISRTPEVTCVVVDVSHEDPEVKFNWYVDGVEVHNAKTKPREEQYNSTYRVVSVLTVLHQDWLNGKEYKCKVSNKALPAPIEKTISKAKGQPREPQVYTLPPSREEMTKNQVSLTCLVKGFYPSDIAVEWESNGQPENNYKTTPPVLDSDGSFFLYSKLTVDKSRWQQGNVFSCSVMHEALHNHYTQKSLSLSPG
light: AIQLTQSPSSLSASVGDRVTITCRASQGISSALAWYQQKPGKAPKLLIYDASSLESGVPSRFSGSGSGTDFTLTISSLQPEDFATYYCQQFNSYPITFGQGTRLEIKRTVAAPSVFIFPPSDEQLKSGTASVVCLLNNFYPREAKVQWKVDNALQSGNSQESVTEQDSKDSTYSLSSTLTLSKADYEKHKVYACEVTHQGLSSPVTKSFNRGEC
notes: built from the chains of the parent P20 with the printed mutation
[7]
  IC50, LPS+IL-12 dependent IFNg production, human whole blood: 21.2 nM
[8]
  Kd: 19 nM
  koff: 0.0011 s⁻¹
  kon: 56000 M⁻¹ s⁻¹
[19]
  Kd: 40 nM
  koff: 0.0013 s⁻¹
  kon: 34000 M⁻¹ s⁻¹
[20]
  fold weaker off-rate and KD than the parent P20: 10 fold
[18]
  Kd: 1.8 nM
  koff: 0.00059 s⁻¹
  kon: 340000 M⁻¹ s⁻¹
[21]
  Kd: 5.5 nM
  koff: 0.00097 s⁻¹
  kon: 180000 M⁻¹ s⁻¹
